Drawing on US20230303666A1, this text covers IC50 of pseudovirus neutralization for 1 substance.

For this assay, the target named is SARS-CoV-2 S on pseudotyped lentivirus (pCMV-SARS2deltaC-gp41) (SARS-CoV-2) (UniProt P0DTC2). Description: cell-based or functional assay.

As to Nb21.t (VHH), the IC50 of pseudovirus neutralization was 0.244 nM.
